The data set deals with the molecule itself. The data set can be described thus: amyloid fibril formation.

B1: C-terminal domain of TDP-43 (TDP-43CTD), wild type, residues 267-414, tagless (domain or fragment)
chain: GHMNRQLERSGRFGGNPGGFGNQGGFGNSRGGGAGLGNNQGSNMGGGMNFGAFSINPAMMAAAQAALQSSWGMMGMLASQQNQSGPSGNNQNQGNMQREPNQAFGSGNNSYSGSNSGAAIGWGSASNAGSGSGFNGGFGSSMDSKSSGWGM
As for B1, the binding result is given as “binds”.

The record behind these values is publication PMC8080960 (The journal of physical chemistry. B, 2021).
